Experimental findings from paper PMC8196004 are described below.

The chains are these.
T1: PP2A-B55, Q7ZX64
T1 chain: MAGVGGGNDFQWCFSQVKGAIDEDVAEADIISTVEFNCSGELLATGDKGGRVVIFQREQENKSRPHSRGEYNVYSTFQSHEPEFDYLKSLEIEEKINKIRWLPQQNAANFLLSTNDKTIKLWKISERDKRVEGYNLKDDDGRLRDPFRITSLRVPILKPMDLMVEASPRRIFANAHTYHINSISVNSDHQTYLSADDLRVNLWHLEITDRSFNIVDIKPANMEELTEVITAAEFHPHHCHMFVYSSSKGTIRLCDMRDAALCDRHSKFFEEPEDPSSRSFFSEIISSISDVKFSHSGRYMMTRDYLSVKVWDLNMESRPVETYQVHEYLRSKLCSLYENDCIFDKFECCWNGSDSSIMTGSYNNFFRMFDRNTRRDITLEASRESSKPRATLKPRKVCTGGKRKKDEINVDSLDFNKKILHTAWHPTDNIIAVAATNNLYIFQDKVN

B1: 6His-Xenopus Arpp19 (isoform 1), wild type Y68A (protein)
chain: MSGENQETKAQEESSALEQKEIDDKVVSPEKSEEIKLKARYPNLGPKPGGSDFLRKRLQKGVSKKQKAFDSGDYNMAKAKMKNKQLPTAASDKTEVTGDHIPTPQDLPQRKPSLVASKLAG
B2: 6His-Xenopus Arpp19 (isoform 1), wild type D70A (protein)
chain: B1 chain with A68Y, D70A
B3: 6His-Xenopus Arpp19 (isoform 1), wild type Y74A (protein)
chain: B1 chain with A68Y, Y74A
B4: 6His-Xenopus Arpp19 (isoform 1), wild type S71T (protein)
chain: B1 chain with A68Y, S71T
B5: 6His-Xenopus Arpp19 (isoform 1), wild type F69A (protein)
chain: B1 chain with A68Y, F69A
B6: 6His-Xenopus Arpp19 (isoform 1), wild type G72A (protein)
chain: B1 chain with A68Y, G72A
B7: 6His-Xenopus Arpp19 (isoform 1), wild type D73A (protein)
chain: B1 chain with A68Y, D73A
B8: 6His-Xenopus Arpp19 (isoform 1), wild type K67A (protein)
chain: B1 chain with K67A, A68Y
B9: 6His-Xenopus Arpp19 (isoform 1), wild type Q66A (protein)
chain: B1 chain with Q66A, A68Y
B10: 6His-Xenopus Arpp19 (isoform 1), wild type G72A; S71T (protein)
chain: B1 chain with A68Y, S71T, G72A
B11: 6His-Xenopus Arpp19 (isoform 1), wild type G72A; S71A (protein)
chain: B1 chain with A68Y, S71A, G72A
B12: 6His-Xenopus Arpp19 (isoform 1), wild type T103A; P104A; D106A; L107A; P108A; Q109A (protein)
chain: B1 chain with A68Y, T103A, P104A, D106A, L107A, P108A, Q109A
B13: 6His-Xenopus Arpp19 (isoform 1), wild type T103A; P104A (protein)
chain: B1 chain with A68Y, T103A, P104A

Positions count from the first letter of the chain named. Names may count otherwise.

In one assay the target is T1, PP2A-B55, Q7ZX64. Briefly: His pull-down, western blot quantification. The note with it: chain shown with the change; 20 ng His-Arpp19; panel titled Phospho-Arpp19; parent: est. 0.98; read off a plot.
For B1, the response was found to be 0.16 AU. The same measure, in the same setting: under B2 stands 0.14 AU.

With B3, the response came out at 0.09 AU. Still for that read-out and setting: under B4 stands 0.21 AU; under B5, 0.04 AU.

Turning to B6, the response is 1.4 AU.

For B7, the response stood at 0.16 AU. Still for that read-out and setting: as for B8, the figure is 0.52 AU; as for B9, 0.86 AU.

Still in this assay, the particulars now being: chain shown with the change; Arpp19 thio-phosphorylated at S67/S71 (ATPγS and recombinant Gwl kinase); parent: est. 1.0; read off a plot.
On to B1, for which the response was 0.18 AU. The same measure, in the same setting: under B2 stands 0.04 AU; under B3, 0.11 AU. Still for that read-out and setting: under B4 stands 0.13 AU. With B5, the response was 0.08 AU. For B7, the response is 0.15 AU.

Staying with this assay, now noted: chain shown with the change;; parent: est. 0.83; read off a plot.
In the case of B10, the response was determined as 0.08 AU. On the same count and under the same terms, under B6 stands 1.2 AU. On the same count and under the same terms, under B11 stands 0.16 AU.

Still in this assay, the particulars now being: chain shown with the change;; parent: est. 0.90; read off a plot.
As to B12, the response worked out at 0.36 AU.

B13: the response amounted to 0.57 AU.
